The labels stand for the following.
T1: Mxr1pN150 (Pichia pastoris (Komagataella phaffii), UniProt C4R818 1-150)
T1 sequence: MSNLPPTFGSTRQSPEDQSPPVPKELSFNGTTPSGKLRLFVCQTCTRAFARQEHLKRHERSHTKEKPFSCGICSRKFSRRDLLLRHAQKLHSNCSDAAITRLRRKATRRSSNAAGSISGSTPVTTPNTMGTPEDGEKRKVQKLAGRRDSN

B1: ALD6-1 promoter MXRE3 (dsDNA)
DNA 1: ACCCTATACTCCACCACTATGAGGGTTATTAGAACTGATC
DNA 2: GATCAGTTCTAATAACCCTCATAGTGGTGGAGTATAGGGT
B2: MXRE3-M (dsDNA)
DNA 1: B1 DNA 1 with C12A
DNA 2: B1 DNA 2 with G29T
B3: ALD6-1 promoter MXRE1 (dsDNA)
DNA 1: CCGCTCAACGGTTCTCCTCTACATCGTCCCTCTTTTGGAG
DNA 2: CTCCAAAAGAGGGACGATGTAGAGGAGAACCGTTGAGCGG
B4: MXRE1-M (dsDNA)
DNA 1: B3 DNA 1 with C17A
DNA 2: B3 DNA 2 with G24T
B5: ALD6-1 promoter MXRE2 (dsDNA)
DNA 1: CCGCACCCCCGAATTTTCACAAATTACCCCACACCCTATA
DNA 2: TATAGGGTGTGGGGTAATTTGTGAAAATTCGGGGGTGCGG
B6: MXRE2-M (dsDNA)
DNA 1: B5 DNA 1 with C30A
DNA 2: B5 DNA 2 with G11T

The values that follow come from PMC8526985, “Characterization of the transactivation and nuclear localization functions of Pichia pastoris zinc finger transcription factor Mxr1p”.

Positions count from the first letter of the chain named.

The target in this data set is T1, Mxr1pN150. Nature of the data set: EMSA; EMSA conditions not given in the material. The settings on record: protein: recombinant; (radiolabeled). For orientation: A gel shift assay detects complexes by their altered migration in electrophoresis.
Consider B1, for which the binding result was “binds”.
On to B2, for which the binding result was “no binding”.
As to B3, the binding result is recorded as “binds”.
The entry for B4 is “no binding”; for B5 it is “binds”.
The entry for B6 is “no binding”.
